Article PMC1369289

T1: JunD selected fragment (Mus musculus, UniProt P15066 262-325)
T1 sequence: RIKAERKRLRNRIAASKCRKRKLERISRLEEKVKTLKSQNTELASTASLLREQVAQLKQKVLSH

T2: JunB selected fragment (Mus musculus, UniProt P09450 265-328)
T2 sequence: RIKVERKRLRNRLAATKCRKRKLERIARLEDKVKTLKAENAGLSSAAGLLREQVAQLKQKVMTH

B1: TRE EMSA probe (dsDNA)
DNA 1: TTCTCCTATGACTCATCCAT
DNA 2: AATGGATGAGTCATAGGAGA
B2: TRE bait DNA (dsDNA)
DNA 1: TGATGACTCATCTCCTATGACTCATCCATTGCATGACTCAGACTTGATGAGTCAGCCGAGCATGAGTCAGACACCTTGCCTGAGCTCAGA
DNA 2: TTCTGAGCTCAGGCAAGGTGTCTGACTCATGCTCGGCTGACTCATCAAGTCTGAGTCATGCAATGGATGAGTCATAGGAGATGAGTCATCA

Columns and labels:
JunD selected fragment = molecular target: T1, JunD selected fragment; experiment: EMSA
JunB selected fragment = molecular target: T2, JunB selected fragment; experiment: EMSA
c-Jun selected fragment = c-Jun selected fragment (Mus musculus, UniProt P05627 255-313); experiment: EMSA
[1] = molecular target: c-Fos model fragment;c-Jun model fragment (Mus musculus?;Mus musculus?, UniProt P01101;P05627 118-212;237-334, |); experiment: mRNA display affinity selection, qPCR
c-Fos model fragment;c-Jun model fragment, sequence (P01101 118-212, chain 1 of 2): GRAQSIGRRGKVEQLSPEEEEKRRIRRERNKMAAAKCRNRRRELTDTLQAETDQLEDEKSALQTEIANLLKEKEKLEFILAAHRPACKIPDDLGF
c-Fos model fragment;c-Jun model fragment, sequence (P05627 237-334, chain 2 of 2): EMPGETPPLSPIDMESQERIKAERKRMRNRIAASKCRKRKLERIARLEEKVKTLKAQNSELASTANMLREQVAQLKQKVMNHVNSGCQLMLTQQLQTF

c-Jun selected fragment, sequence (P05627 255-313): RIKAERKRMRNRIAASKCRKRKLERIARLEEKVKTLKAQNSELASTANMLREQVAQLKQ

Binder | binding result (JunD selected fragment) | binding result (JunB selected fragment) | binding result (c-Jun selected fragment) | binding signal [1]
B1 | binds | binds | binds | –
B2 | – | – | – | ~100 fold enrichment
